Measurements published in PMC5118228 (EJNMMI Research, 2016).

Test: in vivo
Conditions: male, athymic nu/nu, mouse, iv, total radioactivity
[1] = 0.03 nmol, uptake in Red blood cell
[2] = 0.1 nmol, uptake in Red blood cell

Compound: C[C@@H](O)[C@H](NC(=O)[C@@H]1CSSC[C@H](NC(=O)[C@@H](Cc2ccccc2)NC(=O)CN2CCN(CC(=O)O)CCN(CC(=O)O)CCN(CC(=O)O)CC2)C(=O)N[C@@H](Cc2ccc(O)cc2)C(=O)N[C@H](Cc2c[nH]c3ccccc23)C(=O)N[C@@H](CCCCN)C(=O)N[C@@H]([C@@H](C)O)C(=O)N1)C(=O)O [^111In-DOTATATE, metal not drawn]
- tissue uptake at 10 min (0.03 nmol, uptake in Adrenals): 3.4 ± 2.3 %ID/g
- tissue uptake at 0.5 h (0.03 nmol, uptake in Adrenals): 4.7 ± 4.4 %ID/g
- tissue uptake at 1 h (0.03 nmol, uptake in Adrenals): 4.6 ± 5.6 %ID/g
- tissue uptake at 0.05 h (0.03 nmol, uptake in Kidney): 19.2 ± 8.4 %ID/g
- tissue uptake at 10 min (0.03 nmol, uptake in Kidney): 16 ± 4.1 %ID/g
- tissue uptake at 0.5 h (0.03 nmol, uptake in Kidney): 14 ± 4.1 %ID/g
- tissue uptake at 1 h (0.03 nmol, uptake in Kidney): 12.3 ± 3.7 %ID/g
- tissue uptake at 0.05 h (0.03 nmol, uptake in Muscles): 1.2 ± 0.7 %ID/g
- tissue uptake at 10 min (0.03 nmol, uptake in Muscles): 0.9 ± 0.3 %ID/g
- tissue uptake at 0.5 h (0.03 nmol, uptake in Muscles): 0.3 ± 0.1 %ID/g
- tissue uptake at 1 h (0.03 nmol, uptake in Muscles): 0.07 %ID/g
- tissue uptake at 0.05 h (0.03 nmol, uptake in Pancreas): 6 ± 1.5 %ID/g
- tissue uptake at 10 min (0.03 nmol, uptake in Pancreas): 1.6 ± 1.4 %ID/g
- tissue uptake at 0.5 h (0.03 nmol, uptake in Pancreas): 4.7 ± 2.7 %ID/g
- tissue uptake at 1 h (0.03 nmol, uptake in Pancreas): 9.2 ± 1.9 %ID/g
- tissue uptake at 0.05 h (0.03 nmol, uptake in Pituitary): 1 ± 1.7 %ID/g
- tissue uptake at 10 min (0.03 nmol, uptake in Pituitary): 0.2 ± 0.2 %ID/g
- tissue uptake at 0.5 h (0.03 nmol, uptake in Pituitary): 0.5 ± 0.8 %ID/g
- tissue uptake at 1 h (0.03 nmol, uptake in Pituitary): < 0.05 %ID/g
- tissue uptake at 0.05 h (0.03 nmol, uptake in Plasma): 13.3 ± 1.6 %ID/g
- tissue uptake at 0.5 h (0.03 nmol, uptake in Plasma): 3.2 ± 1 %ID/g
- tissue uptake at 1 h (0.03 nmol, uptake in Plasma): 0.8 ± 0.1 %ID/g
- tissue uptake at 0.05 h [1]: 3.5 ± 2.5 %ID/g
- tissue uptake at 0.5 h [1]: 0.6 ± 0.2 %ID/g
- tissue uptake at 1 h [1]: 0.3 ± 0.08 %ID/g
- tissue uptake at 0.05 h (0.03 nmol, uptake in Stomach): 5.6 ± 0.7 %ID/g
- tissue uptake at 10 min (0.03 nmol, uptake in Stomach): 7.9 ± 2.2 %ID/g
- tissue uptake at 0.5 h (0.03 nmol, uptake in Stomach): 8.1 ± 1.3 %ID/g
- tissue uptake at 1 h (0.03 nmol, uptake in Stomach): 7.6 ± 1.1 %ID/g
- tissue uptake at 0.05 h (0.03 nmol, uptake in Tumor): 6.9 ± 3.6 %ID/g
- tissue uptake at 10 min (0.03 nmol, uptake in Tumor): 10.7 ± 2.5 %ID/g
- tissue uptake at 0.5 h (0.03 nmol, uptake in Tumor): 15.1 ± 7.5 %ID/g
- tissue uptake at 1 h (0.03 nmol, uptake in Tumor): 12.8 ± 6.7 %ID/g
- tissue uptake at 1 h (0.1 nmol, uptake in Adrenals): 1.3 ± 0.2 %ID/g
- tissue uptake at 0.05 h (0.1 nmol, uptake in Kidney): 21.6 ± 3.9 %ID/g
- tissue uptake at 10 min (0.1 nmol, uptake in Kidney): 15.6 ± 3.1 %ID/g
- tissue uptake at 0.5 h (0.1 nmol, uptake in Kidney): 16.1 ± 5.5 %ID/g
- tissue uptake at 1 h (0.1 nmol, uptake in Kidney): 16.7 ± 8.6 %ID/g
- tissue uptake at 0.05 h (0.1 nmol, uptake in Muscles): 1.5 ± 0.6 %ID/g
- tissue uptake at 10 min (0.1 nmol, uptake in Muscles): 0.7 ± 0.2 %ID/g
- tissue uptake at 0.5 h (0.1 nmol, uptake in Muscles): 0.4 ± 0.4 %ID/g
- tissue uptake at 1 h (0.1 nmol, uptake in Muscles): 0.3 ± 0.4 %ID/g
- tissue uptake at 0.05 h (0.1 nmol, uptake in Pancreas): 11.9 ± 4 %ID/g
- tissue uptake at 10 min (0.1 nmol, uptake in Pancreas): 9.9 ± 4.2 %ID/g
- tissue uptake at 0.5 h (0.1 nmol, uptake in Pancreas): 7 ± 1.4 %ID/g
- tissue uptake at 1 h (0.1 nmol, uptake in Pancreas): 4.7 ± 0.5 %ID/g
- tissue uptake at 0.05 h (0.1 nmol, uptake in Pituitary): 0.3 ± 0.2 %ID/g
- tissue uptake at 10 min (0.1 nmol, uptake in Pituitary): 0.2 ± 0.09 %ID/g
- tissue uptake at 0.5 h (0.1 nmol, uptake in Pituitary): 0.1 ± 0.2 %ID/g
- tissue uptake at 1 h (0.1 nmol, uptake in Pituitary): < 0.05 %ID/g
- tissue uptake at 0.05 h (0.1 nmol, uptake in Plasma): 13.2 ± 1.7 %ID/g
- tissue uptake at 10 min (0.1 nmol, uptake in Plasma): 8.6 ± 1.4 %ID/g
- tissue uptake at 0.5 h (0.1 nmol, uptake in Plasma): 3.4 ± 1.7 %ID/g
- tissue uptake at 1 h (0.1 nmol, uptake in Plasma): 1 ± 0.6 %ID/g
- tissue uptake at 0.05 h [2]: 5.2 ± 0.7 %ID/g
- tissue uptake at 0.5 h [2]: 0.8 ± 0.4 %ID/g
- tissue uptake at 1 h [2]: 0.2 ± 0.1 %ID/g
- tissue uptake at 0.05 h (0.1 nmol, uptake in Stomach): 4.4 ± 1.1 %ID/g
- tissue uptake at 10 min (0.1 nmol, uptake in Stomach): 5.2 ± 1.1 %ID/g
- tissue uptake at 0.5 h (0.1 nmol, uptake in Stomach): 6.3 ± 2 %ID/g
- tissue uptake at 1 h (0.1 nmol, uptake in Stomach): 6 ± 1.8 %ID/g
- tissue uptake at 10 min (0.1 nmol, uptake in Tumor): 11.8 ± 3.6 %ID/g
- tissue uptake at 1 h (0.1 nmol, uptake in Tumor): 9.9 ± 2.6 %ID/g
- tissue uptake at 0.05 h (0.3 nmol, uptake in Adrenals): 2.3 ± 0.6 %ID/g
- tissue uptake at 10 min (0.3 nmol, uptake in Adrenals): 1.2 ± 0.4 %ID/g
- tissue uptake at 0.5 h (0.3 nmol, uptake in Adrenals): 1 ± 0.1 %ID/g
- tissue uptake at 1 h (0.3 nmol, uptake in Adrenals): 0.8 ± 0.3 %ID/g
- tissue uptake at 0.05 h (0.3 nmol, uptake in Kidney): 17.2 ± 5.4 %ID/g
- tissue uptake at 10 min (0.3 nmol, uptake in Kidney): 12.8 ± 2.2 %ID/g
- tissue uptake at 0.5 h (0.3 nmol, uptake in Kidney): 16.9 ± 6.3 %ID/g
- tissue uptake at 1 h (0.3 nmol, uptake in Kidney): 13.4 ± 2.8 %ID/g
- tissue uptake at 0.05 h (0.3 nmol, uptake in Muscles): 1.1 ± 0.1 %ID/g
- tissue uptake at 10 min (0.3 nmol, uptake in Muscles): 0.5 ± 0.1 %ID/g
- tissue uptake at 0.5 h (0.3 nmol, uptake in Muscles): 0.3 ± 0.1 %ID/g
- tissue uptake at 1 h (0.3 nmol, uptake in Muscles): < 0.05 %ID/g
- tissue uptake at 10 min (0.3 nmol, uptake in Pancreas): 3.5 ± 0.3 %ID/g
- tissue uptake at 0.5 h (0.3 nmol, uptake in Pancreas): 3.2 ± 0.4 %ID/g
- tissue uptake at 1 h (0.3 nmol, uptake in Pancreas): 3 ± 1 %ID/g
